Experimental data as given in PMC3202669.

Biological target: 7c12 monobody displayed on phage
Experiment: ELISA

- fold reduction of binding against WT: 400 fold
Substance: GST-Abl SH2 I164E (domain or fragment)
